Where a chain is given by its changes, count along the chain named.
T1: human IL-1R1, endogenous on human cells (HeLa cells; whole blood) (human, UniProt P14778 18-569)
T1 sequence (looked up): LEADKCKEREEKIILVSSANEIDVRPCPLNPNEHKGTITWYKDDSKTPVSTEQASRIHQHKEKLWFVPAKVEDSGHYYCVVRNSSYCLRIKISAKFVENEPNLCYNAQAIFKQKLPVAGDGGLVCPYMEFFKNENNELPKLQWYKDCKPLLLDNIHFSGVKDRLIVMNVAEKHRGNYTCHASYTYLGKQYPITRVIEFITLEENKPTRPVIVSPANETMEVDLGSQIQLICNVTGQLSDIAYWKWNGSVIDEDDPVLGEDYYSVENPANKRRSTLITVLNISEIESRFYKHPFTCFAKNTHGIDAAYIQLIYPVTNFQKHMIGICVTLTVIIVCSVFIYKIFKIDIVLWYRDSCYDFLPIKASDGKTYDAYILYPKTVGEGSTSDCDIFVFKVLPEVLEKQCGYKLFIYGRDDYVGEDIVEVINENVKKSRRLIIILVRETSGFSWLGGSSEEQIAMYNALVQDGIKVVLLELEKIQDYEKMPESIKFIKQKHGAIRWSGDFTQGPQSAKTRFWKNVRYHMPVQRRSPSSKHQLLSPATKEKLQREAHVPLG

T2: cynomolgus IL-1R1, endogenous on CYNOM-K1 cells (cynomolgus monkey, UniProt A0A7N9CMI5 18-569)
T2 sequence: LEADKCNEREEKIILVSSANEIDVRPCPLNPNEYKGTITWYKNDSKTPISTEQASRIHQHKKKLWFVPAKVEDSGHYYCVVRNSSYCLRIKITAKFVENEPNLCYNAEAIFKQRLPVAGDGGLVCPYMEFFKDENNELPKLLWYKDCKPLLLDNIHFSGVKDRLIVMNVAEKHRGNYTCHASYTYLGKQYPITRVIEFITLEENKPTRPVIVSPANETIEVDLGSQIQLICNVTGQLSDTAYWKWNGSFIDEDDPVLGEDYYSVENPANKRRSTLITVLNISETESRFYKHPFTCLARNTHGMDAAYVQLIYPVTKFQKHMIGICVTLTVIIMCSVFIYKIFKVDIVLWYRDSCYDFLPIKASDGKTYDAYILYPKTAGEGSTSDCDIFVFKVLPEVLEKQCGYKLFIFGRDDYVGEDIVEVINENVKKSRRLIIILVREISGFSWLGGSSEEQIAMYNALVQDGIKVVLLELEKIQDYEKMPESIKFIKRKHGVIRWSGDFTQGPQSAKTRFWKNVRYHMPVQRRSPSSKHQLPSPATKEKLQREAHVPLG

B1: Antibody 1 IgG1 (antibody, V domains shown)
VH: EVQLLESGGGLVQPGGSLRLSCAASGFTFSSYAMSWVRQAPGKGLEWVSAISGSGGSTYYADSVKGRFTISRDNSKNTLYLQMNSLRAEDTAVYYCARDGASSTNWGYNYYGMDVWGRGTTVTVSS
VL: QAVLTQPSSASGTPGQRVTISCSGSSSNIGSNYVFWYQQFPGTAPQLLVKWNNQRPSGVPDRFSGSKSGTSASLAISGLRSEDEADYYCAAWDDSLSGLVFGGGTKLTVL
B2: Antibody 4 IgG1 (antibody, V domains shown)
VH: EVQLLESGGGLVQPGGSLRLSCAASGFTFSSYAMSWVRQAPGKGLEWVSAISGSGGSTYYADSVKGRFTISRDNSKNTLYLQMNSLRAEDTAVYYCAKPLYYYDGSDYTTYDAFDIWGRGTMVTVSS
VL: QSVLTQPPSVSGAPGQRVTISCTGSSSNIGAGYDVHWYQQLPGTAPKLLIYGDTHRPSGVPDRFSGSKSGTSASLVIAGLQAEDEADYYCQSYDTSLSGSLFGGGTKLTVL
B3: Antibody 2 IgG1 (antibody, V domains shown)
VH: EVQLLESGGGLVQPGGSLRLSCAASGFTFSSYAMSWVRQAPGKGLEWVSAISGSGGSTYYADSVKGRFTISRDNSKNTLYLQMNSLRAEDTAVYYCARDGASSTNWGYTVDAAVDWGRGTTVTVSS
VL: B1 VL with S95H, S97E, G98Q, V100H
notes: Non-germlined IgG1, lambda light chain
B4: Antibody 3 IgG1 (antibody, V domains shown)
VH: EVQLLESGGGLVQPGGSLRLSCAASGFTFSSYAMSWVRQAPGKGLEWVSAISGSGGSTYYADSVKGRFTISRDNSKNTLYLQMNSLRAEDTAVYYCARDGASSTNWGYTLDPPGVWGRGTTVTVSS
VL: B1 VL with S95A, L96A, S97R, G98V, V100L
notes: as for B3
B5: Antibody 6 IgG1 (antibody, V domains shown)
VH: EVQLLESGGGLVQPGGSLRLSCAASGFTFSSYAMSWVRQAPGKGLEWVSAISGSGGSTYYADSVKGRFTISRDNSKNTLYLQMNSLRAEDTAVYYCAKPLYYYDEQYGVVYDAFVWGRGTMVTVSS
VL: B2 VL with S96V, L97R, S98L, G99H, S100H, L101V
notes: as for B3
B6: Antibody 8 IgG1 (antibody, V domains shown)
VH: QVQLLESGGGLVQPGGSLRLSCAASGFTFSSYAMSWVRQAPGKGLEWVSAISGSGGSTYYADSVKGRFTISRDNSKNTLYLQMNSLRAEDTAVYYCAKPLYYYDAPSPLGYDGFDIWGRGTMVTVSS
VL: B2 VL with S96H, S98V, G99A, S100H, L101V
notes: as for B3
B7: Antibody 7 IgG1 (antibody, V domains shown)
VH: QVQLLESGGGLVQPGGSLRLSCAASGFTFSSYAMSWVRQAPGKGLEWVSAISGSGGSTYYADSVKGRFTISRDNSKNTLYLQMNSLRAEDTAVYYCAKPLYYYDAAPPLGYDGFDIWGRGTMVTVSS
VL: B2 VL with S96D, L97A, S98A, G99R, S100H, L101Q
notes: as for B3
B8: Antibody 5 IgG1 (antibody, V domains shown)
VH: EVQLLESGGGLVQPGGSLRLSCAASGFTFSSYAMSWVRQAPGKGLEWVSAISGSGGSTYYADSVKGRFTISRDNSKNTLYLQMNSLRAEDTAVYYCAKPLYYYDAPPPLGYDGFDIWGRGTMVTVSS
VL: B2 VL with S96A, L97G, S98G, S100H, L101H
notes: as for B3
B9: Antibody 9 IgG1 (antibody, V domains shown)
VH: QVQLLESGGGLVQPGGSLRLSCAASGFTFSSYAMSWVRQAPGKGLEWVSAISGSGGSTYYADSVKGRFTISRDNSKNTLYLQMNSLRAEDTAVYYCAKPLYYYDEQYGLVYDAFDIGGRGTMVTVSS
VL: B2 VL with S96L, S98L, G99A, S100P, L101Q
notes: as for B3
B10: Antibody 9GL IgG2 (antibody, V domains shown)
VH: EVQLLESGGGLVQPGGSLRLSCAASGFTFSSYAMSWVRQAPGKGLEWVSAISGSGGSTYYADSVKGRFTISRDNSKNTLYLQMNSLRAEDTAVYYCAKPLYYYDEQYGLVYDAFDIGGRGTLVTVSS
VL: B2 VL with V76A, A78T, S96L, S98L, G99A, S100P, L101Q
notes: Germlined IgG2, lambda light chain; also called 28Q1 GL
B11: MoD2c IL1R1 (Fc fusion, human;mouse, UniProt P14778 18-177, looked up, not shown: a dimerising Fc or GST)
chain: LEADKCKEREEKIILVSSANEIDVRPCPLNPNEHKGTITWYKDDSKTPVSTEQASRIHQHKEKLWFVPAKVEDSGHYYCVVRNSSYCLRIKISAKFVENEPNLCYNAQAIFKQKLPVAGDGGLVCPYMEFFKNENNELPKLQWYKDCKPLLLDNIHFSGVKDKLIVMNVAEKHRGNYTCHASYTYLGKQYPITRVIEFITLEENKPTRPVIVSPANETMEVDLGSQIQLICNVTGQLSDIAYWKWNGSVIDEDDPVLGEDYYSVENPANKRRSTLITVLNISEIESRFYKHPFTCFAKNTHGIDAAYIQLIYPVTNFQK
notes: also called chimera without loop d2-e2
B12: MoD1b IL1R1 (Fc fusion, human;mouse, UniProt P14778 18-42, looked up, not shown: a dimerising Fc or GST)
chain: LEADKCKEREEKIILVSSANEIDVRKCPLTPNKMHGDTITWYKDDSKTPVSTEQASRIHQHKEKLWFVPAKVEDSGHYYCVVRNSSYCLRIKISAKFVENEPNLCYNAQAIFKQKLPVAGDGGLVCPYMEFFKNENNELPKLQWYKDCKPLLLDNIHFSGVKDRLIVMNVAEKHRGNYTCHASYTYLGKQYPITRVIEFITLEENKPTRPVIVSPANETMEVDLGSQIQLICNVTGQLSDIAYWKWNGSVIDEDDPVLGEDYYSVENPANKRRSTLITVLNISEIESRFYKHPFTCFAKNTHGIDAAYIQLIYPVTNFQK
notes: range 1-42;range 45-56;range 54-336
B13: MoD3a2 IL1R1 (Fc fusion, human;mouse, UniProt P14778 18-272, looked up, not shown: a dimerising Fc or GST)
chain: B11 chain with K163R, V256F, G258A, Y262Q, S263F, N266H, A268S, N269T, R272K
notes: range 1-272;range 276-292;range 290-336
B14: MoD3b IL1R1 (Fc fusion, human;mouse, UniProt P14778 18-309, looked up, not shown: a dimerising Fc or GST)
chain: LEADKCKEREEKIILVSSANEIDVRPCPLNPNEHKGTITWYKDDSKTPVSTEQASRIHQHKEKLWFVPAKVEDSGHYYCVVRNSSYCLRIKISAKFVENEPNLCYNAQAIFKQKLPVAGDGGLVCPYMEFFKNENNELPKLQWYKDCKPLLLDNIHFSGVKDRLIVMNVAEKHRGNYTCHASYTYLGKQYPITRVIEFITLEENKPTRPVIVSPANETMEVDLGSQIQLICNVTGQLSDIAYWKWNGSVIDEDDPVLGEDYYSVENPANKRRSTLITVLNISEIESRFYKHPFICVVKNTNIFESAHVQLIYPVTNFQK
B15: MoD3 HuD1-D2 IL1R1 (Fc fusion, human;mouse, UniProt P14778 18-227, looked up, not shown: a dimerising Fc or GST)
chain: LEADKCKEREEKIILVSSANEIDVRPCPLNPNEHKGTITWYKDDSKTPVSTEQASRIHQHKEKLWFVPAKVEDSGHYYCVVRNSSYCLRIKISAKFVENEPNLCYNAQAIFKQKLPVAGDGGLVCPYMEFFKNENNELPKLQWYKDCKPLLLDNIHFSGVKDRLIVMNVAEKHRGNYTCHASYTYLGKQYPITRVIEFITLEENKPTRPVILSPRNETIEADPGSMIQLICNVTGQFSDLVYWKWNGSEIEWNDPFLAEDYQFVEHPSTKRKYTLITTLNISEVKSQFYRYPFICVVKNTNIFESAHVQLIYPVPDFK
notes: range 1-227;range 231-338

Each binder was assayed against T1, human IL-1R1, endogenous on human cells … (assay: cell-based or functional assay).

| Binder | IC50, inhibition of human IL-1β induced IL-8 release from HeLa cells |
| --- | --- |
| B1 | 95.9 nM |
| B2 | 22 nM |

Target: T1, human IL-1R1, endogenous on human cells …
Experiment: cell-based or functional assay
Remark: another data set of the same source

| Binder | IC50, inhibition of IL-1 beta induced IL-8 release in HeLa cells (IgG1) | IC50, inhibition of IL-1 alpha induced IL-8 release in HeLa cells (GL IgG2) | IC50, inhibition of IL-1 beta induced IL-8 release in HeLa cells (GL IgG2) |
| --- | --- | --- | --- |
| B3 | 0.0775 nM |  |  |
| B4 | 0.0494 nM |  |  |
| B5 | 0.0078 nM |  |  |
| B6 | 0.0293 nM |  |  |
| B7 | 0.0426 nM |  |  |
| B8 | 0.032 nM |  |  |
| B9 | 0.0115 nM |  |  |
| B10 |  | 0.0162 nM | 0.0069 nM |

Each binder was assayed against T2, cynomolgus IL-1R1, endogenous on … (assay: cell-based or functional assay).

| Binder | IC50, inhibition of IL-1β induced IL-8 release from CYNOM-K1 cells, experiment 1 | IC50, inhibition of IL-1β induced IL-8 release from CYNOM-K1 cells, experiment 2 |
| --- | --- | --- |
| B10 | 1.2 nM | 1.1 nM |

What follows are binders tested against Antibody 6 (Eu3+ cryptate labelled, Example 5) (assay: HTRF competition assay, against human IL-1R1 as reference).
Description: (§1) Antibody was cryptate labelled with Eu³′ Cryptate labelling kit according to the manufacturer's instructions (CisBio International Cat No. 62EUSPEA) and IL-1R1/Fc (SEQ ID NO: 134, see Material and Methods) was Biotin labelled with EZ Link Sulfo-NHS-Biotin (Perbio Cat No. 21335) according to the manufacturer's instructions. Assay conditions were 0.25 nM Cryptate labelled antibody, 0.3 nM biotin labelled IL-1R1/Fc, 2.5 nM streptavidin XL^{ent!} (CisBio International Cat. No. 611SAXLB) in 1×D-PBS, 0.1% BSA, 0.4M potassium fluoride in a total volume of […] in a 384 well shallow well costar plate (3676). To the assay a dilution series (from maximum of 100 nM to 0.0017 nM) of test proteins was added and the assay incubated for 3 hours at room temperature. FRET signal was detected using a PerkinElmer EnVision plate reader using a 320 nm excitation filter and 620 nm and 665 nm emission filters. Results were calculated from the 665/620 ratio as a percentage of specific binding (signal with no competitor antigen). Results were analysed with Prism (GraphPad Software) using the sigmoidal dose response model.
Antibody binding of chimeric molecules was tested in an HTRF (Homogeneous Time Resolved Fluorescence) competition assay. […] From inhibition curves IC₅₀ values for human IL-1R1, mouse IL-1R1 and chimeric molecules were calculated (Table 12). […]

| Binder | fold higher IC50 than human IL-1R1 |
| --- | --- |
| B11 | > 3 fold |

Each binder was assayed against T3, human histidine tagged (HIS) IL1RFc fusion protein (human) (assay: HTRF receptor-ligand assay, IgG inhibiting HIS FLAG IL-1Ra binding to cryptate labelled human HIS IL1RFc).
T3 construct: Biotinylated or cryptate labelled in some assays; also called human HIS IL1RFc; huIL-1R1-Fc
Description: The ability of lead antibodies to inhibit IL-1Ra to IL-1R1 was assessed in a receptor-ligand binding HTRF® (Homogeneous Time-Resolved Fluorescence) assay format for inhibition of HIS FLAG tagged human IL1Ra (In house, E. Coli expressed; HIS FLAG IL-1RA) binding to human histidine tagged (HIS) IL1RFc fusion protein (in house), as described in the Materials and methods section.
A titration of inhibitor was used in order to establish the clone potency as measured by IC₅₀ values in the assay. All dilutions were carried out in assay buffer as for ligand binding assay above. 5 μl of a titration of inhibitor was added to a 384 well low volume assay plate (Costar 3676). This was then followed by addition of 0.4 nM cryptate labelled HIS IL1RFc. Assay plates were then sealed and incubated at room temperature in dark for 1 hour.

| Binder | IC50 |
| --- | --- |
| B3 | 0.256 nM |
| B4 | 0.469 nM |
| B5 | 0.1 nM |
| B6 | 0.156 nM |
| B7 | 0.168 nM |
| B8 | 0.186 nM |
| B9 | 0.156 nM |
| B10 | 0.208 nM |

What follows are binders tested against Antibody 6 (Eu3+ cryptate labelled, Example 5) (assay: HTRF competition: unlabelled test protein against biotin labelled human IL-1R1/Fc binding to cryptate labelled antibody).
Description: as §1
Antibody binding of chimeric molecules was tested in an HTRF (Homogeneous Time Resolved Fluorescence) competition assay. Molecules which bound antibody at the same paratope as human IL-1R1 inhibited the binding interaction, leading to a reduction in signal. From inhibition curves IC₅₀ values for human IL-1R1, mouse IL-1R1 and chimeric molecules were calculated (Table 12). […] Chimeras that gave similar IC₅₀ values to native human IL-1R1 still contained the epitope.

| Binder | IC50 |
| --- | --- |
| B12 | 0.201 nM |
| B11 | 0.637 nM |
| B13 | 0.268 nM |
| B14 | 0.337 nM |
| B15 | 0.147 nM |

— patent publication US20100221257A1 (AstraZeneca / MedImmune, published 2010)
